23 sequences from the Immune Epitope Database (IEDB) can be followed below.

By Kd is commonly meant the constant that tells how readily two partners part at equilibrium.

Some targets named below: HLA-A*33:01; HLA-A*11:01; HLA-A*68:01; HLA-A*03:01; HLA-A*31:01.
Holding throughout (assay): IEDB peptide-MHC binding, purified MHC/competitive/radioactivity; filed as Kd, often an IC50 or EC50 that approximates it; ≥ and ≤ were set here for values at or beyond the usual limits of such assays
The mark [1] stands for this setting: source organism: Vaccinia virus WR.
Setting [2] is: source organism: Mammarenavirus juninense.
The mark [3] stands for this setting: source organism: SARS coronavirus Tor2.

With MFEQYFIYTY, the Kd worked out at 5690 nM with HLA-A*33:01 (setting [1]); 2140 nM with HLA-A*11:01 (setting [1]); 8110 nM in the assay with HLA-A*68:01 (setting [1]); 18.6 nM with HLA-A*03:01 (setting [1]); 4510 nM with HLA-A*31:01 (setting [1]).
In the same order, the values of KAEMQLKIDK are 19800 nM, 125 nM, at least 25200 nM, 3720 nM and 3270 nM.
Turning to PLLCTLNKSH, the Kd was at least 70000 nM in the assay with HLA-A*33:01 (setting [2]); at least 69700 nM with HLA-A*11:01 (setting [2]); at least 70100 nM with HLA-A*68:01 (setting [2]); at least 70000 nM in the assay with HLA-A*03:01 (setting [2]); at least 70000 nM with HLA-A*31:01 (setting [2]).
In the case of AAMQRKLEK, the Kd is at least 77700 nM with HLA-A*33:01 (setting [3]); 257 nM with HLA-A*11:01 (setting [3]); at least 77700 nM with HLA-A*68:01 (setting [3]); 7010 nM with HLA-A*03:01 (setting [3]); at least 21200 nM in the assay with HLA-A*31:01 (setting [3]).
Consider KTNDINVRRR, for which the Kd with HLA-A*33:01 (setting [1]) worked out at 5470 nM; with HLA-A*11:01 (setting [1]), 1460 nM; with HLA-A*68:01 (setting [1]), 848 nM; with HLA-A*03:01 (setting [1]), 64.1 nM; in the assay with HLA-A*31:01 (setting [1]), 17.9 nM.
In the same order, the values of KFLEFSNRVY are at least 70000 nM, 10100 nM, at least 68800 nM, at least 39800 nM and 24.5 nM.
In the same order, the values of WIQYDKHCY are at least 60400 nM, 39.5 nM, 2980 nM, 5820 nM and 5660 nM.
In the same order, the values of VIGLSGDSER are 1180 nM, 15900 nM, 182 nM, at least 63700 nM and 8890 nM.
For the sequence IQVTISSYK, the Kd with HLA-A*33:01 (setting [3]) was 7950 nM; with HLA-A*11:01 (setting [3]) it was 10.8 nM; in the assay with HLA-A*68:01 (setting [3]) it was 274 nM; with HLA-A*03:01 (setting [3]), 15.4 nM; with HLA-A*31:01 (setting [3]) it was 139 nM.
In the case of GSWATSSFR, the Kd in the assay with HLA-A*33:01 (setting [1]) is 226 nM; with HLA-A*11:01 (setting [1]), 7.38 nM; with HLA-A*68:01 (setting [1]) it was 54.1 nM; with HLA-A*03:01 (setting [1]), 111 nM; with HLA-A*31:01 (setting [1]), 0.56 nM.
On the same counts, the results for NLKAMLYIIR are 133 nM, 10900 nM, 209 nM, 8530 nM and 4840 nM.
In the same order, the values of KSINKVYGRY are at least 70000 nM, 1190 nM, at least 33500 nM, 2610 nM and 64.3 nM.
As to QMDSMEALEY, the Kd with HLA-A*33:01 (setting [1]) was at least 70000 nM; with HLA-A*11:01 (setting [1]), 755 nM; with HLA-A*68:01 (setting [1]) it was 11800 nM; with HLA-A*03:01 (setting [1]), 1710 nM; in the assay with HLA-A*31:01 (setting [1]), at least 70000 nM.
Regarding AARILSEKRK, the Kd with HLA-A*33:01 (setting [1]) is at least 70000 nM; in the assay with HLA-A*11:01 (setting [1]), 3140 nM; with HLA-A*68:01 (setting [1]), 8050 nM; with HLA-A*03:01 (setting [1]), 7880 nM; with HLA-A*31:01 (setting [1]), at least 63700 nM.
In the case of MTSWLDFSH, the Kd stood at 13600 nM with HLA-A*33:01 (setting [2]); 116 nM in the assay with HLA-A*11:01 (setting [2]); 3.36 nM with HLA-A*68:01 (setting [2]); 548 nM in the assay with HLA-A*03:01 (setting [2]); 176 nM in the assay with HLA-A*31:01 (setting [2]).
For VFTDISMSLY, the Kd in the assay with HLA-A*33:01 (setting [1]) came out at 6760 nM; with HLA-A*11:01 (setting [1]) it was 2290 nM; in the assay with HLA-A*68:01 (setting [1]), 2300 nM; in the assay with HLA-A*03:01 (setting [1]) it was 8240 nM; with HLA-A*31:01 (setting [1]), 11600 nM.
On the same counts, the results for DICSKHMDAR are 126 nM, at least 69800 nM, 605 nM, at least 47100 nM and 1480 nM.
On the same counts, the results for NSQIFNIISY are 10600 nM, 5090 nM, 441 nM, 1080 nM and 1320 nM.
In the same order, the values of NVTSMEELAR are 254 nM, 227 nM, 2.82 nM, 5040 nM and 705 nM.
In the case of VSLLRSTSQK, the Kd with HLA-A*33:01 (setting [3]) is 2540 nM; with HLA-A*11:01 (setting [3]), 172 nM; with HLA-A*68:01 (setting [3]), 6330 nM; with HLA-A*03:01 (setting [3]), 11.6 nM; with HLA-A*31:01 (setting [3]) it was 175 nM.
Regarding ASKTINALVY, the Kd in the assay with HLA-A*33:01 (setting [1]) is at least 70000 nM; in the assay with HLA-A*11:01 (setting [1]) it was 1010 nM; in the assay with HLA-A*68:01 (setting [1]), at least 41800 nM; with HLA-A*03:01 (setting [1]), 761 nM; with HLA-A*31:01 (setting [1]) it was 11100 nM.
In the same order, the values of IFMRDWNSK are 8940 nM, 8210 nM, 2390 nM, 11700 nM and 8520 nM.
On the same counts, the results for LSKRERQLAK are at least 57900 nM, 1120 nM, 5940 nM, 1360 nM and 1600 nM.
